Results taken from paper PMC5580658.

Experiments:
Hfq [1] = target: T1, Hfq (Escherichia coli, UniProt P0A6X3 1-102); experiment: EMSA
Hfq [2] = target: T1, Hfq; experiment: EMSA; remark: listed apart in the source

T1 sequence (P0A6X3 whole entry): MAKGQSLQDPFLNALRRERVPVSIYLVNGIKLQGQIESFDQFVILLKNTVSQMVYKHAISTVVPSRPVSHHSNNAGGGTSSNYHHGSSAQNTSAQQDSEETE

Row | Binder | Kd (Hfq [1]) [nM] | binding signal (Hfq [2])
1 | mutS leader ARN3* (structured_RNA) RNA: GGUGCGCCUUAUGUGAUUACAACGAAAAUAAAAACCAUCACACCCCAUUUAAUAUCAGGGAACCGGACAUAACCCCAUGAGUGCCAUCGAGAAUUUCGACGCCCAU | ~19 | 
2 | mutS leader ARN1* (structured_RNA) RNA: GGUGCGCCUUAUGUGAUUACAACGAACGUAUAUACCAUCACACCCCAUUUAAUAUCAGGGAACCGGACAUAACCCCAUGAGUGCAAUAGAAAAUUUCGACGCCCAU |  | ~3 fold lower affinity than WT
